Reference: patent US20250145679A1

How the values were obtained:
[1] = target: human lymphoma (HH) cell line (human); test: binding to HH cells, dose-dependent (FIG. 5); receptor on the cells not named
[2] = target: T1, IL-2/15Rβ (CD122) ECD (human) (UniProt P14784); test: SPR, Biacore 8K, complex captured on anti-human Fc CM5 chip, receptor ECD-His injected; ka and kd printed as NA
T1 sequence: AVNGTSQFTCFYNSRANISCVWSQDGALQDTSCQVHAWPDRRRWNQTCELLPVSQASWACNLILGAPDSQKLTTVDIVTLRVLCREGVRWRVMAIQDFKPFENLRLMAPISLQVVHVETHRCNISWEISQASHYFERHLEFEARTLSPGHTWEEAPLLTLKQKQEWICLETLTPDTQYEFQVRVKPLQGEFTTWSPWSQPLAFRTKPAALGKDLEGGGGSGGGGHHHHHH

EC50 [1]: 0.172 µM
Kd [2]: 8.58 µM
B1: W327151-BMK1 (XENP24306) (Fc fusion, part only; not given: IL-15Ralpha-Fc chain, linker and Fc, not shown: a dimerising Fc or GST)
chain, part: NWVNVISDLKKIEDLIQSMHIDATLYTESNVHPSCKVTAMKCFLLELQVISLESGDASIHDTVQDLIILANNSLSSNGNVTESGCKECEELEEKNIKEFLQSFVHIVQMFINTS
